This is an account of results in the supplement of paper PMC9170038.

This data set relates to MS2 coat protein. As to the kind of experiment: apparent KD of MS2 coat protein; higher = weaker reporter binding. The settings on record: Eterna round: R107. The method, then: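 RNA-MaP round R107: designed RNA switches with theophylline, tryptophan, arginine or FMN aptamers are transcribed on-chip within common flanks. They are titrated with SNAP-549-labelled MS2 coat protein in RNA-MaP buffer (100 mM Tris pH 7.5, 80 mM KCl, 4 mM MgCl2), without ligand or with the indicated ligand. Median apparent KD per design.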

Where [1] appears, read: input ligand: theophylline 20 uM.
[2] abbreviates: input ligand: tryptophan 2.4 mM.
Setting [3] is: input ligand: theophylline 2 mM.

As to “AGUACACGAACGGAUACCAGCCGGACAUGAGGAUCACCCAUGUCCUACCUCUGUUCGGUUGGCCCUUGGCAGCCGUUCGUGUACA [Omei Theo B SS A v8]”, the “apparent KD of MS2 coat protein” value by setting is: (input ligand: arginine 13.2 mM) 122 nM; under setting [1], 590 nM; under setting [2], 208 nM.
With “AUCAUGGCCAUCGAUACCAGCUACAUGAGGAUCACCCAUGUAAACGGCCCGGUGAGAUGUAGCCCUUGGCAGCGAAGGGUCGAGG [Inenenatti]”, the “apparent KD of MS2 coat protein” value was determined as 14 nM (input ligand: arginine 13.2 mM); 18.6 nM (input ligand: none); 24.3 nM under setting [1]; 72.3 nM under setting [3]; 14.6 nM under setting [2].
As to “AAAAGAGGUGGAAGGAGCGGGAGACAUGAGGAUCACCCAUGUGAUGUUACGAAAGGUUCAGCCCAGGUAGGUCGCCAUGUCGAAA [zczzmullin]”, the “apparent KD of MS2 coat protein” value was found to be 36.6 nM (input ligand: arginine 13.2 mM); 46.8 nM (input ligand: none); 268 nM under setting [1]; 175 nM under setting [3]; 34.7 nM under setting [2].
As to “ACUCGGUAUGUCUAAUACCGAGAGUAUGAUACCAGUAUGGUGACAUACCCUUGGCAGCAUGGGACAUGAGGAUCACCCAUGUGUU [SSThA NP+V+V2 #10 Same Structure]”, the “apparent KD of MS2 coat protein” value (input ligand: arginine 13.2 mM) is 119 nM, the “apparent KD of MS2 coat protein” value under setting [1] was 465 nM and the “apparent KD of MS2 coat protein” value under setting [2] was 588 nM.
With “AUCGUACCUGAUGAUACCAGCAAGUGAUCAUAACAUGAGGAUCACCCAUGUAAUCAGUGAUGCCCUUGGCAGCAUAGUCGAUACA [Same State - Theophylline B (Freestyle 5)]”, the “apparent KD of MS2 coat protein” value worked out at 77.8 nM (input ligand: arginine 13.2 mM), 199 nM under setting [1] and 166 nM under setting [2].
Consider “GCUGCUUUGGGAAGGAGCGCUGCGUUAUCAUGUUGGACAUGAGGAUCACCCAUGUAAAUGUAGCAGGUAGGUCGCUUAGGGCAGC [EAP NP+V+V2 #15]”, for which the “apparent KD of MS2 coat protein” value (input ligand: arginine 13.2 mM) turned out to be 40.8 nM; the “apparent KD of MS2 coat protein” value (input ligand: none) is 31.8 nM; the “apparent KD of MS2 coat protein” value under setting [1] was 46 nM; the “apparent KD of MS2 coat protein” value under setting [3] was found to be 29.7 nM; the “apparent KD of MS2 coat protein” value under setting [2] was 37.1 nM.
“UGGGCAUACAUGAGGAUCACCCAUGUAGAUACCAGCACUAGCCUGUGCCCUUGGCAGCUAACCGGGUCGAGAACUUAGUGCUCCU [Lexele]”: the “apparent KD of MS2 coat protein” value reads like this: (input ligand: arginine 13.2 mM) 10.9 nM; under setting [1], 21.9 nM; under setting [2], 11.5 nM.
Regarding “UGCCGAGACGUGGAUUACCCGUGUACCGAAGGAGCGCCCGAAAGGGCAGGUAGGUCGCGGAGGACAUGAGGAUCACCCAUGUUUA”, the “apparent KD of MS2 coat protein” value is 202 nM (input ligand: arginine 13.2 mM); 56.3 nM (input ligand: none); 55 nM under setting [1]; 79.8 nM under setting [3]; 55.7 nM under setting [2].
“UCGUGUAUUUCGGAUACCAGUGAAAUCGAUACAUGAGGAUCACCCAUGUGAGAGGAUGUACACCCUUGGCAGCUGUCUGUAUCUG [cxezmullin]”: the “apparent KD of MS2 coat protein” value is, setting by setting: (input ligand: arginine 13.2 mM) 14.6 nM; under setting [1], 20.2 nM; under setting [2], 15.5 nM.
For the sequence “AUUAAGGAUAUAUAGAAGGCGGAGAAGAGACGAGGACCGGUACGGCCGCCACUCGUGUUAGUUAACAUGAGGAUCACCCAUGUAA [Turkey 2]”, the “apparent KD of MS2 coat protein” value came out at 41.3 nM (input ligand: arginine 13.2 mM), 76.9 nM under setting [1] and 102 nM under setting [3].
“AUGCAUAUCAGAAGGAGCGUCAUUAACAUGAGGAUCACCCAUGUAACAUUGAAUUCGAUGAGACAGGUAGGUCGCUGAAUAGUAA [SS-ArgB26]”: the “apparent KD of MS2 coat protein” value was 26.6 nM (input ligand: arginine 13.2 mM); 35.6 nM (input ligand: none); 44.9 nM under setting [1]; 37.9 nM under setting [3]; 31.1 nM under setting [2].
Turning to “CCUGCGUUUCUUUUCUUUCGCAGGAAUGAUACCAGUAGGGAAACCUACCCUUGGCAGCAUGGGACAUGAGGAUCACCCAUGUUUU [SSThA NP+V+V2 #4]”, the “apparent KD of MS2 coat protein” value (input ligand: arginine 13.2 mM) came to 117 nM, the “apparent KD of MS2 coat protein” value under setting [1] is 202 nM and the “apparent KD of MS2 coat protein” value under setting [2] was 181 nM.
With “UCAUAAGUACCGGUCCUCAGAUCCUCAUGACGAGGACCGGUACGGCCGCCACUCGAAACAUGAGGAUCACCCAUGUAAUAAUAUU [Brourdmod11]”, the “apparent KD of MS2 coat protein” value came to 19.5 nM (input ligand: arginine 13.2 mM), 28.5 nM under setting [1] and 27.3 nM under setting [3].
With “UUCAGCUAGUCGGCCGCCACUACAAGAGGAUCACCCUUGUAGGUCCACACUGCUUCGGCAGUGAGUAGGACCGGGACUAGCUGAG”, the “apparent KD of MS2 coat protein” value came to 10.9 nM (input ligand: arginine 13.2 mM); 11.3 nM (input ligand: none); 13.1 nM under setting [1]; 13.7 nM under setting [3]; 17.7 nM under setting [2].
Turning to “GUGGGACAUGAGGAUCACCCAUGUGACGAUACCAGUCAAUUGAUGGACCCUUGGCAGCGUUGGUAUUGCGGGUAGGCGAGAUAAG [theeternabot_sameState_MS2_Theo_A_3]”, the “apparent KD of MS2 coat protein” value reads like this: (input ligand: arginine 13.2 mM) 21.4 nM; under setting [1], 60.2 nM; under setting [2], 40.4 nM.
As for “ACGCCCGCCUCACAUGAGGAUCACCCAUGUCGAGGACCGGUACGGCCGCCACUCGUCGUCGGUAAUACGGGCGUUGAAUAAUAUA [Atedon]”, the “apparent KD of MS2 coat protein” value stood at 11.8 nM (input ligand: arginine 13.2 mM), 14.9 nM under setting [1] and 14.4 nM under setting [3].
As to “AAUAGCUUGAGGAUCACCCAAGUAAAAGAUACCAGAGUGAUGAUCCUCCCUUGGCAGCUUAACGCUGAUUGAUUACAAUCAGCGA”, the “apparent KD of MS2 coat protein” value (input ligand: arginine 13.2 mM) worked out at 46.5 nM; the “apparent KD of MS2 coat protein” value (input ligand: none) came out at 33.8 nM; the “apparent KD of MS2 coat protein” value under setting [1] amounted to 93.9 nM; the “apparent KD of MS2 coat protein” value under setting [3] stood at 106 nM; the “apparent KD of MS2 coat protein” value under setting [2] stood at 35.1 nM.
